# Assay results reported in US20070276125A1.
# Positions of bridges follow the written chain, without caps; N, C: chain ends. No end group written: not given here.
# B1: … peptide (SEQ ID NO:3) (peptide)
# peptide: DCAFHLGELVWCT
# modifications: cyclized by a disulfide bond between the two cysteine residues
# B2: … peptide (SEQ ID NO:41) (peptide)
# peptide: PCARHLGELVWCT
# modifications: disulfide 2-12 (inferred)
# B3: … peptide (SEQ ID NO:5) (peptide)
# peptide: RCARHLGELVWCT
# modifications: disulfide 2-12 (inferred)
# B4: … peptide (printed in Table 8 with SEQ ID NO:14) (peptide)
# peptide: APPDCARHLGELVWCT
# modifications: cyclized by a disulfide bond between the two cysteine residues
# B5: … peptide (SEQ ID NO:42) (peptide)
# peptide: DCAWHLGELAACT
# modifications: cyclized by a disulfide bond between the two cysteine residues
# B6: … peptide (SEQ ID NO:40) (peptide)
# peptide: DCAAHLGELAACT
# modifications: cyclized by a disulfide bond between the two cysteine residues
# B7: … peptide (SEQ ID NO:4) (peptide)
# peptide: DCARHLGELVWCT
# modifications: disulfide 2-12 (inferred)
# Columns and labels:
# [1] = target: peroxidase-anti-peroxidase (PAP) immune complex (preformed immune complex of peroxidase and anti-peroxidase IgG); assay: reverse ELISA, competition: soluble MBP pre-incubated with rabbit PAP, then MBP-coated plate; lower = more inhibition
# human C1q (human) [2] = target: human C1q (human) (UniProt P02745); assay: reverse ELISA: PAP on C1q-coated plate, no inhibitor
# FcγIII [3] = assay: reverse ELISA: PAP on FcγIII-coated plate, no inhibitor
# FcγIIa [4] = assay: reverse ELISA: PAP on FcγIIa-coated plate, no inhibitor
# FcγIIb [5] = assay: reverse ELISA: PAP on FcγIIb-coated plate, no inhibitor
# [6] = target: myelin basic protein (MBP, Sigma); assay: reverse ELISA: rabbit PAP on MBP-coated plate, no inhibitor
# human C1q (human) [7] = target: human C1q (human) (UniProt P02745); assay: reverse ELISA: rabbit PAP on C1q-coated plate, no inhibitor
# FcγIII [8] = assay: reverse ELISA: rabbit PAP on FcγIII-coated plate, no inhibitor
# FcγIIa [9] = assay: reverse ELISA: rabbit PAP on FcγIIa-coated plate, no inhibitor
# FcγIIb [10] = assay: reverse ELISA: rabbit PAP on FcγIIb-coated plate, no inhibitor
# Histone (Sigma) [11] = assay: reverse ELISA: rabbit PAP on histone-coated plate, no inhibitor
# whole human IgG4 = assay: reverse ELISA: immune complexes on IgG4-coated plate, no inhibitor
# [12] = target: myelin basic protein (MBP, Sigma); assay: reverse ELISA: binding of MBP to IgG PAP immune complexes, no inhibitor
# Histone (Sigma) [13] = assay: reverse ELISA: binding of histones to IgG PAP immune complexes, no inhibitor
# [14] = target: peroxidase-anti-peroxidase (PAP) immune complex (preformed immune complex of peroxidase and anti-peroxidase IgG); assay: reverse ELISA, competition: soluble histone pre-incubated with rabbit PAP, then histone-coated plate; lower = more inhibition
# [15] = target: peroxidase-anti-peroxidase (PAP) immune complex (preformed immune complex of peroxidase and anti-peroxidase IgG); assay: reverse ELISA, competition: pre-incubated with rabbit PAP, then RF-coated plate (competitor: RF); lower = more inhibition
# [16] = target: peroxidase-anti-peroxidase (PAP) immune complex (preformed immune complex of peroxidase and anti-peroxidase IgG); assay: reverse ELISA, competition: pre-incubated with rabbit PAP, then C1q-coated plate (competitor: C1q); lower = more inhibition
# [17] = target: peroxidase-anti-peroxidase (PAP) immune complex (preformed immune complex of peroxidase and anti-peroxidase IgG); assay: reverse ELISA, competition: pre-incubated with rabbit PAP, then FcγIII-coated plate (competitor: FcγIII); lower = more inhibition
# [18] = target: peroxidase-anti-peroxidase (PAP) immune complex (preformed immune complex of peroxidase and anti-peroxidase IgG); assay: reverse ELISA, competition: pre-incubated with rabbit PAP, then FcγIIa-coated plate (competitor: FcγIIa); lower = more inhibition
# [19] = target: peroxidase-anti-peroxidase (PAP) immune complex (preformed immune complex of peroxidase and anti-peroxidase IgG); assay: reverse ELISA, competition: pre-incubated with rabbit PAP, then FcγIIb-coated plate (competitor: FcγIIb); lower = more inhibition
# [20] = target: human monomeric IgG (Research Diagnostics); assay: RF test, competition: peptide pre-incubated 1 hour with human monomeric IgG, washed, then 200 I.U. RF (competitor); OD = RF bound, lower = more inhibition
# [21] = target: peroxidase-anti-peroxidase (PAP) immune complex (preformed immune complex of peroxidase and anti-peroxidase IgG); assay: reverse ELISA, competition: pre-incubated with PAP, then RF-coated plate (competitor: RF); lower = more inhibition
# [22] = target: peroxidase-anti-peroxidase (PAP) immune complex (preformed immune complex of peroxidase and anti-peroxidase IgG); assay: reverse ELISA, competition: peptide with immune complexes, IgG4-coated plate (competitor: IgG4); lower = more inhibition
# [23] = target: peroxidase-anti-peroxidase (PAP) immune complex (preformed immune complex of peroxidase and anti-peroxidase IgG); assay: reverse ELISA, competition: pre-incubated with PAP, then FcγIII-coated plate (competitor: FcγIII); lower = more inhibition
# [24] = target: peroxidase-anti-peroxidase (PAP) immune complex (preformed immune complex of peroxidase and anti-peroxidase IgG); assay: reverse ELISA, competition: pre-incubated with PAP, then FcγIIa-coated plate (competitor: FcγIIa); lower = more inhibition
# [25] = target: peroxidase-anti-peroxidase (PAP) immune complex (preformed immune complex of peroxidase and anti-peroxidase IgG); assay: reverse ELISA, competition: pre-incubated with PAP, then FcγIIb-coated plate (competitor: FcγIIb); lower = more inhibition
# [26] = target: peroxidase-anti-peroxidase (PAP) immune complex (preformed immune complex of peroxidase and anti-peroxidase IgG); assay: reverse ELISA, competition: pre-incubated with rabbit PAP, then MBP-coated plate (competitor: MBP); lower = more inhibition
# [27] = target: peroxidase-anti-peroxidase (PAP) immune complex (preformed immune complex of peroxidase and anti-peroxidase IgG); assay: reverse ELISA, competition: pre-incubated with rabbit PAP, then histone-coated plate (competitor: histone); lower = more inhibition
# [28] = target: peroxidase-anti-peroxidase (PAP) immune complex (preformed immune complex of peroxidase and anti-peroxidase IgG); assay: reverse ELISA, competition: pre-incubated with PAP, then C1q-coated plate (competitor: C1q); OD = PAP bound, lower = more inhibition
# [29] = target: human monomeric IgG (Research Diagnostics); assay: RF test, competition: peptide pre-incubated with human monomeric IgG, washed, then 200 I.U. RF (competitor); OD = RF bound, lower = more inhibition
# FcγIIb, sequence (P31994 43-217): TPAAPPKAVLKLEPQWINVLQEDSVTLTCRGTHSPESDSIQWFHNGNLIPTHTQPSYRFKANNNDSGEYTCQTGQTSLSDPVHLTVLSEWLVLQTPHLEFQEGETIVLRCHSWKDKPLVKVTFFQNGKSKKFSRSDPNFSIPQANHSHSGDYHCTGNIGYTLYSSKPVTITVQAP
# human C1q (human), sequence (P02745 23-245 limits assumed, chain 1 of 3): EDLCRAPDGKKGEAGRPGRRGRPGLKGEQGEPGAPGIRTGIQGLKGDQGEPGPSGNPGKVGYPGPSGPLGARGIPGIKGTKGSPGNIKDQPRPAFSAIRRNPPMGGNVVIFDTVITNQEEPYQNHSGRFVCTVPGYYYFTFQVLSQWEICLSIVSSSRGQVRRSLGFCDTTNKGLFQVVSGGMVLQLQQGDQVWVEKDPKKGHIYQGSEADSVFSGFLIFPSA
# human C1q (human), sequence (P02746 28-253 limits assumed, chain 2 of 3, further chain): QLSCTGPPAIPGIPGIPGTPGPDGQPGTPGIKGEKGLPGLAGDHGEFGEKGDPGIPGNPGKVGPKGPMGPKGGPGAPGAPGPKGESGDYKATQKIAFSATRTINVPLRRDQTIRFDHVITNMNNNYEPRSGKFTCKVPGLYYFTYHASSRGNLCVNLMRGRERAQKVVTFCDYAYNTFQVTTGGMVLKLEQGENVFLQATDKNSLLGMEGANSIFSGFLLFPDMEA
# human C1q (human), sequence (P02747 29-245 limits assumed, chain 3 of 3, further chain): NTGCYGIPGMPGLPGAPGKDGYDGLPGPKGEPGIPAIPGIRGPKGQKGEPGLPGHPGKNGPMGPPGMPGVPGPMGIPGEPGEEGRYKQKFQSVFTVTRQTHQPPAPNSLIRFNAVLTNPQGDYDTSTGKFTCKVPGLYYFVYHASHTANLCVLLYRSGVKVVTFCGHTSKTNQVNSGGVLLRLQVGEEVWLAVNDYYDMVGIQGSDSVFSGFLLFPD
# FcγIIa, sequence (P12318 34-217): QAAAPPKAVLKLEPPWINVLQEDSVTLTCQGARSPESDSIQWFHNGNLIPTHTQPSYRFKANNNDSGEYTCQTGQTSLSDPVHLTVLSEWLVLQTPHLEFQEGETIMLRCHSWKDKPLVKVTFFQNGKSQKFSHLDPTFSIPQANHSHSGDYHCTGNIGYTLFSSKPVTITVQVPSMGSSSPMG
Molecule,OD 405 nm [21] [OD],OD 405 nm [22] [OD],OD 450 nm [23] [OD],OD 450 nm [24] [OD],OD 450 nm [25] [OD],OD 405 nm [26] [OD],OD 405 nm [27] [OD],OD 405 nm [28] [OD],OD 405 nm [29] [OD],other results
"myelin basic protein (MBP, Sigma)",,,,,,,,,,OD 405 nm [1]: 0.139 OD
peroxidase-anti-peroxidase (PAP) immune complex (preformed immune complex of peroxidase and anti-peroxidase IgG),,,,,,,,,,OD 405 nm (human C1q (human) [2]): 0.467 OD; OD 450 nm (FcγIII [3]): 3.6 OD; OD 450 nm (FcγIIa [4]): 3.6 OD; OD 450 nm (FcγIIb [5]): 3.6 OD; OD 405 nm [6]: 1.03 OD; OD 405 nm (human C1q (human) [7]): 2.35 OD; OD 405 nm (FcγIII [8]): 1.59 OD; OD 405 nm (FcγIIa [9]): 1.6 OD; OD 405 nm (FcγIIb [10]): 1.39 OD; OD 405 nm (Histone (Sigma) [11]): 1.27 OD; OD 405 nm (whole human IgG4): 0.716 OD; OD 405 nm [12]: 2.34 OD; OD 405 nm (Histone (Sigma) [13]): 2.11 OD
Histone (Sigma),,,,,,,,,,OD 405 nm [14]: 0.057 OD
B1,,,,,,,,,,OD 405 nm [15]: 0.267 OD; OD 405 nm [16]: 0.859 OD; OD 405 nm [17]: 0.81 OD; OD 405 nm [18]: 0.66 OD; OD 405 nm [19]: 0.51 OD; OD 405 nm [20]: 0.962 OD
B2,0.106,0.129,1.6,1.15,1.21,0.489,0.444,0.205,1.32,
B3,0.152,0.191,3.5,3.4,3.28,0.569,0.359,0.247,1.31,
B4,,0.107,,,,,,,,
B5,0.622,0.557,1.34,1.48,1.07,0.706,0.729,,1.4,
B6,,,2.41,2.43,2.26,,,0.458,1.42,
B7,0.109,0.096,2.53,2.54,1.95,0.473,0.363,0.193,1.23,
